This data set deals with T1, RHAU53 peptide (DHX36/RHAU residues 53-106 as printed) (UniProt Q9H2U1 SEQ:1-53).
T1 sequence: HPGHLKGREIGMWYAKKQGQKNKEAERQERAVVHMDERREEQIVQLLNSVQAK
Put plainly: EMSA; 80 nM RHAU53, 2 nM FAM-D-TERRA; 25 mM Tris-HCl pH 7.5, 150 mM KCl, 1 mM MgCl2, 37 C; gel with 40 mM KOAc; complex formation inhibited by L-RNA Ap3-7 (SEQ 19, binds the TERRA RNA) with IC50 937.1±1.7 nM. Particulars: tags: peptide obtained from OriGene; label: 5'FAM; G4 (3 G-quartets, UUA loops). On the procedure: L-RNA Ap3-7 and S′FAM labelled D-RNA TERRA were heated at 75° C. for 3 minutes and cooled down separately. Then, reaction mixtures containing 2 nM 5′FAM labelled D-TERRA, 25 mM Tris-HCl (pH 7.5), 150 mM KCl and 1 mM MgCl₂ were prepared. Corresponding amount of L-Ap3-7 and 80 nM RHAU53 were premixed, then added to the specific samples and incubated at 37° C. for 30 minutes. The final samples were loaded onto a native PAGE (6%, 49:1), containing 40 mM KOAc, 1 mM MgCl₂ and 0.5×TBE (pH 8.3), and run at 30 mA for 75 minutes.
To study if L-Ap3-7 can compete with rG4-binding protein and inhibit the D-TERRA rG4-protein complex formation, the inventors have tested it with RHAU53 peptide. Particularly, L-RNA Ap3-7 and S′FAM labelled D-RNA TERRA were heated at 75° C. for 3 minutes and cooled down separately. Then, reaction mixtures containing 2 nM 5′FAM labelled D-TERRA, 25 mM Tris-HCl (pH 7.5), 150 mM KCl and 1 mM MgCl₂ were prepared. Corresponding amount of L-Ap3-7 and 80 nM RHAU53 were premixed, then added to the specific samples and incubated at 37° C. for 30 minutes. The final samples were loaded onto a native PAGE (6%, 49:1), containing 40 mM KOAc, 1mM MgCl₂ and 0.5 X TBE (pH 8.3), and run at 30 mA for 75 minutes. […]

B1: D-TERRA rG4 (ssRNA)
RNA: UUAGGGUUAGGGUUAGGGUUAGGG
Consider B1, for which the binding result is “binds”.

For the origin of these results see patent US20210171950, “METHOD OF PRODUCING AN APTAMER AND USES THEREOF” (City University of Hong Kong, published 2021).
